Laboratory results reported in the DeepSol protein solubility set.

assay: soluble on expression in E. coli; label from the status in PepcDB or PDB records

Sequence	soluble on expression in E. coli
MHTMHIPSGDVLIPKPKLITEETDPLHIIKTRQKTHGRPVTIAGPMVRYSKLPFRQLCREYNVDIVYSPMILAREYVRNEHARISDLSTNNEDTPLIVQVGVNNVADLLKFVEMVAPYCDGIGINCGCPIKEQIREGIGCALIYNSDLLCSMVHAVKDKYGDKLRIETKIRIHEALDETVELCRKLCDAGVDWITIHGRTRRTRSSQPANLDAIKYIIENISDKNVPVIANGDCFKLSDLERITKYTGAHGVMAVRGLLSNPALFAGYTTCPWGCIEKFCYWALEFGGLPFQLAQHHLYCMLENMELKKSLLKKMMNLKNYISLIDWFNKTFEFKRYGEDGFGMGVEIPYKANSCVQRSASVVERQE	soluble
MNIISEHGFRIDGRRPAQIRNINTRLGLNRNAEGSCYLEHGNTKVLCAVYGPYEGKSSKRIEDKCAIVCQYSATKFSGLERKNRTRGDRKSTEISRLLEKAFESVILTEAFPRSQLDIFCEVIQGDGSNLAACVNATSLALADAGIPMKGIASAATCGVVDGKPIVDLTSREETDLLPRVTLATICGRDEVILVELQNRLHIDHLSTVMDAAKATCADVYECLAVVAQQHLKACAPILGN	not soluble
MAHHHHHHMRKKMKTLHLTGKKNFLFQNMQLRLYKEAPPKVFNKKSSHSSLWIQRQITDRYVLKAKNDNYRSRAAYKLIELDNKYMFLKKNKTILDIGCYPGSWCQVILERTKNYSNEIIGIDKKIMDPLPNIHFIHAEIGGAKDNPNDSNLVDVKLREILQGKKVDIILSDAAVPCVGNKIDDHMNSCELTLGITNFMEQYINMGGTYVVKMYLGSQTDNLKTYLKTIFQFVNTTKPKASRRESREIYLVCRNFLGRKKIGEDVQVKGAFSLKEGYY	not soluble
GPGSMQQPGSHQIQPIDSLTPFLGGKWWIRARVTDKTDIRTWNKPTSQGKLFSFTLIDESAAIRATVFNDAVDTFEPLIVNGQVYYFSGGQVKNANRRFSNVNNDYELTFDRSSEIMLARQDTSTAALPMQRYNFVPIELLKQREVGSLVDVLGVVLKVDEVSSITQKSTGRELMKRNVKMGDMTAAVEVTFWNDEAKAWCYPVGTVVALRQLKVGSFDGVTLSSTYQTKIDINPTDLPDVKKLATWYVATGGANVTSLSSQGLGAASGAGGESDRGRKYLDEIQSEGIGRGLKPEYVDVRCVPIYFKQDAQWYDACPTCNKKVTEEGAQGDRFRCEKCDKTVTPTQRYLVSIQVTDNVSQAWLTLFNEAGIEFFGMEAAELKRRAQEDPLYIAKLAQGRMNRPVVMRLRVKEEMSSNSMTGEESDRLRMSVVRISEFMPIAGTSEETRRRLAQNLRTECDEILRLIEAYV	not soluble
MTKETTQHRSGERIARFADIEVLSYRADLFGTLTPKQRMLCYHLSEAALRGRDITTIQNCRYNLWVRSLMERIYTHLSKSERTDDFALLEEYLFCIWFANGIHHHYSGAKFIARFSPGFLRAALREAGVELEPEEQVLLERVLYDTDFLPKQTEQSGEEDIIKASSVNFYAPGITRAEAESHYKNLIEALPENEKSCPPSFGLNTRLIRSTSGELKDEVCCIDGLYGPAIEAVVASLEAAIPYTENEEQAACIRLLCDYYRTGDIRLYDRFCIRWVENNRTRIDFINGFTEVYADPIGIHGSWEGLVHMQDEEAGRRTRIISEHAGWFEAHSPIDARFRKKNPHGISATVVNVLTIAGDSYPATPIGINLPNADWIRAEHGSKSVTIDNITDAYNHAARGTGLYEEFIPDEEVRRHVELHADLTDSLHTDLHECLGHGSGQLLPGVPGDALGEHASTLEETRADLFALYFLADPKMIELGLLTDPDAYKANYYKYMLNGLMTQLVRIKRGEEIEEAHMRNRALIARYVLEHAERPGAMSLVCEEGKTALVIKDYEAVRAIIAGLLTEVQRIKSEGDYTAGKALVERYAVHVDPLLHEEVLTRYAKLDIAPYKGFVNPRLRPVYNSEGRLTDATIEYTEGYAEQMLRYSAEYSFLPTDSPLLQEARRLRSHLRRAMDGVLSASMREKGLHYGINFGVTREHLLRLARTADASAPLADYLWRRDVRETKILATMIFPAEELTHEQATRLLREADNVELREQLTANLLERMPEAIRSIGRWIESKETTPDMMTGVLTLAARLFTRGIFPEDVPAEKLLTLAILHLSDEEQKAELRRASALLLKRYGRGSAERTKKVLCLLPESSQDTAPVLYELCEDIRFELDFYPKDE	not soluble
MDAWKEITKTTENDGVSTCSLSSIAFDPYSELVWTGHKNGQIKSSFGPSLTSYTQFIGHEGPVHQVLPQERGVFSLSSKSLRLSNRKGTIRWRYHSVPCVQRSMIILYSCFLCSKHAVLISRDSDCIDYRAMFYQSRNNPEVVIGGYHQKLTVVNAERGISIHKDKNVSDIFIMRRNRLLCCGSTNGEIILRDPNSFQPVNKVVAHTGTISDIDTSGNLLLSCGYSLRHGTYMLDPFVKVWDLRNLSSLVPIPFPAGPTIIRMHPKLSTTAVVCSCSGQFHIVDTGNPLDAKLMQIPLTSYLTGMDIASTGDAMVFTDVEDNIHLWSPLENPSFSDLKLPIQLPNTSTETVQLENNDPLNSIGLPYYKDELLSSWSKYLIFDVGKPILDSNLLIAKQISENSHPVPQEIKSFHRNQIIEVPWLNRKLISEGATPKFHSERQKDIMSGNDIEGSASYFEEIEDTISGPDSIPKFYQRPVIKYSKFGIEDFDFGFYNKTKYAGLETDITNSYCNSVLQLLSYVPSFSKAAISHSLGPCDLMECLLCELGFLFAMLKESTGRNCQATNFLRAFSNSSFAQSLGIVFDDYSDGTFPDSFVIQKFTKFMLTEISRIADYEDKKDGTSFPVSFLLKSFCIPEMQTYRCGICGITSQKIKSSLYIIDLHYPSQQLESILSFEWLFKMSLDRRVDLPPGWCEYCLAHQPFLLRSFIRSLPDCLFINTQVKHHEHWKLWARKNWLPKKLHLRRVNDTMQCVSQKISNLDKDQQSLSVYVLRGIIYEIRQNGEEPHFVSTIRVSDNTSSDNPDDNRWYIFNDFLVKEVTEEEALTVHGPWKIPIIVYYEKLDTKIPQWDEVSDYTLLYQPYSLNKNPPINKIQPLTTDEMLYPKMLVGIDSEFVALQQEETEVRSDGTKSTIKPSKLSLARVSVLRGEGPNKGLPFIDDYVATDDKVTDYLTEYSGIHPGDLDPDRSPYNVVPLKVAYKKLRLLVNAGCIFVGHGLQKDFRIINLLVPPEQVVDTVDLFFLSSRQRKLSLKFLAWYLLDEEIQLTEHDSIEDALTALKLYDCYDKLKSQGKLEETLDNIYEVGRRFKFRPPSVASMSLEDRNSYGDESVISNQTN	soluble
ARLKHLEDEPGHEDEGKRPLFHFSAVERIARIGVPSMIQQSIVSISMLMMQGLVNSYGSVFIAGYTAATKIDSLAMMPNMNFSNAMSSYTAQNIGAGKIERVKDGYKANM	not soluble
MRCILLGSGTSTGVPEVGCHCRVCRSEDRHDKRTRTSLLIITDAGKRILIDCSPDFRQQALFAGIDSLDAVLLTHEHFDHVGGLDDLRTICWHRELAVYAEQNVLDSIRDRLHYVFRKNPYPGTPLLKLCEVKPDMPFQVADLTVEPLRIMHGRLPILGYKIGEMAFLTDMKDIAAEEIECLKSCRLLFINGLRYRKEHPSHQTIEQAIDTIGQIGNPESVLIHLSHHAPLHQEHLEILPPHIHSGYDGLEAIIDEKGIRIKDFEPHVSRSEYHYQDCGRIGYESALTLQRKLFHDAVADKLENRKPQNTLLFCEHEPVLTLGKHGHEENLLLSESELKSRDIRLFHIERGGDITYHGPGQITGYPIFDLEQYGIGLRSYIEMLEQCIIDLIAIFGLKGERSAGASGVWLDPDIPGRTRKICAIGVKSSRHITMHGFALNVNTDLDYFKLINPCGFSDRGVTSISRELGREQDFILVKQQLEAVFRRNFGAL	not soluble
MGSDKIHHHHHHMAFTNNVMIVRHKLLAKLVNLWKENKLTNEIDRLPIELSPRRSRPLGRCCIHKERAVYKYKLFPLLGFDMTDETDELTSLSEYARQALERKNKQKENILCVIDEACSSCVQVNYEVTNLCRGCVARSCYMNCPKDAIRFRKNGQAKIDHDACISCGKCHQSCPYHAIVFIPVPCEEACPVKAISKDENGIEHIDESKCIYCGKCLNACPFGAIFEISQAFDVLEGIRSGEKMIAIPAPSILGQFNTSIEAVYGALRQMGFADVVEVAQGAMDTVSHEAAELKEKLEEGQPFMTTSCCPSYIELVNKHIPGMKPYVSSTGSPMYYAARIAKERHPDAKIVFIGPCVAKRKEARRDECVDYILTFEEMASIFEGLDIQLEQTQPFSVLYTSVREAHGFAQAGGVMGAIKAYLGEEAKKFSAIQVSDLNKKNIGLLRAAAKTGKAQGQFIEVMACEGGCISGPSAHNDAIGGRRQLNQELIKRRESYEETHR	not soluble
MGSDKIHHHHHHMTLSSSFAQLKDFKFKFYGQIRTDFYYNSRANEETVDGLFYMYPKDEVLDGNGEDLNATSNSNFYTLYSRLGLDVAGPKLGTAKTSAKVEVDFRGSGTSYSTIRLRHAYFNLDWGKSAVLVGQTWHPLFGDVSPQILNLSVGAPFQPFSRAPQIRYRFNNKHLQLTGALVWQSQYLSQGPAGKSQEYIKKSNIPEIYVGADYKNGGFLAGAGIEMISLKPRTQSSWEEKTFDPTTNSTISIPHTYKVDERITTLSYEAHVKYTNKNWFIGAKSVLGSNLTQASGLGGFGIKHIDNKTKEQEYTPIRFSSSWLNVVYGQKWKPGIFVGYAKNLGTSDELVSEKLYGTGTNLDKLVTAGAELTYNVPHWKFGVEYTLSSAWYGKLDKSDGKIIDTHSVSNNRIVAVAMFMF	not soluble
MVLEATVLVIDNSEYSRNGDFPRTRFEAQIDSVEFIFQAKRNSNPENTVGLISGAGANPRVLSTFTAEFGKILAGLHDTQIEGKLHMATALQIAQLTLKHRQNKVQHQRIVAFVCSPISDSRDELIRLAKTLKKNNVAVDIINFGEIEQNTELLDEFIAAVNNPQEETSHLLTVTPGPRLLYENIASSPIILEEGSSGMGAFGGSGGDSDANGTFMDFGVDPSMDPELAMALRLSMEEEQQRQERLRQQQQQQDQPEQSEQPEQHQDK	soluble
MQYPINEMFQTLQGEGYFTGVPAIFIRLQGCPVGCAWCDTKHTWDKLSDREVSLFSILAKTKESDKWGAASSEDLLAVINRQGYTARHVVITGGEPCIHDLMPLTDLLEKSGFSCQIETSGTHEVRCTPNTWVTVSPKVNMRGGYDVLSQALERANEIKHPVGRVRDIEALDELLATLSDDKPRVIALQPISQKEDATRLCIETCIARNWRLSMQTHKYLNIA	not soluble
MSLHRISDRFPVHVVVWPVKVQGEGSGEEVANAIRGFNALKPGGDIARPDVLIVARGGGSLEDLWSFNDEIVVRAAAESEIPLISAVGHETDTTLIDYAADVRAPTPTGAAEMAVPVRAELEAQLSGLAARLSGSVSRQMDNRRQGVRALVRALPSLDQLLALPRRRFDEAASGLGRGLELTTLNKRRAFERSASGLRPETLLNGLKHHRQRITERMHRAETLVEREGHHHHHH	soluble
MQVTHKILKIPSKGYRKILSLLNEKGQARLIGGCVRDALLDLLHNKTNKEEFEGDTERRIAMYINVREDSSTGSTYKLPLEASYPRDRLEKGSCDIDIATNLTPSEVTNILSGAKIKTIPTGLKFGTITATLNNEKFEITTLRKDIECNGRHAKVIFTNDFAEDAARRDFTINALSYCPFKNEIYDYFEGFKDLQQEKVVFIGEALDRIKEDYLRILRFFRFSSYYANQLDDGNFKACKALKDGLKTLSRERIKSEMDKIIVSKRAAQILKAMFEIGILELIFSIQNYEIKFFEQANDFKLELVTRYALLLYCQKDLNLKVFLDWKFSKHEAMQILSITNFLNDAKFNMKKIWFEKKNYKEYLLAARIIGKLNHSQVKEFILKYDALLRPKFQVNGNDLLNMNIEKKKIGAKLEYLKNFWIEQDFKPSKLELLAKL	soluble
MKKLKVMTVFGTRPEAIKMAPLVLELKKYPEIDSYVTVTAQHRQMLDQVLDAFHIKPDFDLNIMKERQTLAEITSNALVRLDELFKDIKPDIVLVHGDTTTTFAGSLAAFYHQIAVGHVEAGLRTGNKYSPFPEELNRQMTGAIADLHFAPTGQAKDNLLKENKKADSIFVTGNTAIDALNTTVRDGYSHPVLDQVGEDKMILLTAHRRENLGEPMENMFKAIRRIVGEFEDVQVVYPVHLNPVVREAAHKHFGDSDRVHLIEPLEVIDFHNFAAKSHFILTDSGGVQEEAPSLGKPVLVLRDTTERPEGVEAGTLKLAGTDEENIYQLAKQLLTDPDEYKKMSQASNPYGDGEASRRIVEELLFHYGYRKEQPDSFTGKGSHHHHHH	soluble
